Laboratory results taken from paper PMC8924993.

Biological target: integrin αIIbβ3 (human (endogenous in HEL)) (UniProt P08514)
Assay: proximity ligation

Sequence of talin (Q9Y490 whole entry): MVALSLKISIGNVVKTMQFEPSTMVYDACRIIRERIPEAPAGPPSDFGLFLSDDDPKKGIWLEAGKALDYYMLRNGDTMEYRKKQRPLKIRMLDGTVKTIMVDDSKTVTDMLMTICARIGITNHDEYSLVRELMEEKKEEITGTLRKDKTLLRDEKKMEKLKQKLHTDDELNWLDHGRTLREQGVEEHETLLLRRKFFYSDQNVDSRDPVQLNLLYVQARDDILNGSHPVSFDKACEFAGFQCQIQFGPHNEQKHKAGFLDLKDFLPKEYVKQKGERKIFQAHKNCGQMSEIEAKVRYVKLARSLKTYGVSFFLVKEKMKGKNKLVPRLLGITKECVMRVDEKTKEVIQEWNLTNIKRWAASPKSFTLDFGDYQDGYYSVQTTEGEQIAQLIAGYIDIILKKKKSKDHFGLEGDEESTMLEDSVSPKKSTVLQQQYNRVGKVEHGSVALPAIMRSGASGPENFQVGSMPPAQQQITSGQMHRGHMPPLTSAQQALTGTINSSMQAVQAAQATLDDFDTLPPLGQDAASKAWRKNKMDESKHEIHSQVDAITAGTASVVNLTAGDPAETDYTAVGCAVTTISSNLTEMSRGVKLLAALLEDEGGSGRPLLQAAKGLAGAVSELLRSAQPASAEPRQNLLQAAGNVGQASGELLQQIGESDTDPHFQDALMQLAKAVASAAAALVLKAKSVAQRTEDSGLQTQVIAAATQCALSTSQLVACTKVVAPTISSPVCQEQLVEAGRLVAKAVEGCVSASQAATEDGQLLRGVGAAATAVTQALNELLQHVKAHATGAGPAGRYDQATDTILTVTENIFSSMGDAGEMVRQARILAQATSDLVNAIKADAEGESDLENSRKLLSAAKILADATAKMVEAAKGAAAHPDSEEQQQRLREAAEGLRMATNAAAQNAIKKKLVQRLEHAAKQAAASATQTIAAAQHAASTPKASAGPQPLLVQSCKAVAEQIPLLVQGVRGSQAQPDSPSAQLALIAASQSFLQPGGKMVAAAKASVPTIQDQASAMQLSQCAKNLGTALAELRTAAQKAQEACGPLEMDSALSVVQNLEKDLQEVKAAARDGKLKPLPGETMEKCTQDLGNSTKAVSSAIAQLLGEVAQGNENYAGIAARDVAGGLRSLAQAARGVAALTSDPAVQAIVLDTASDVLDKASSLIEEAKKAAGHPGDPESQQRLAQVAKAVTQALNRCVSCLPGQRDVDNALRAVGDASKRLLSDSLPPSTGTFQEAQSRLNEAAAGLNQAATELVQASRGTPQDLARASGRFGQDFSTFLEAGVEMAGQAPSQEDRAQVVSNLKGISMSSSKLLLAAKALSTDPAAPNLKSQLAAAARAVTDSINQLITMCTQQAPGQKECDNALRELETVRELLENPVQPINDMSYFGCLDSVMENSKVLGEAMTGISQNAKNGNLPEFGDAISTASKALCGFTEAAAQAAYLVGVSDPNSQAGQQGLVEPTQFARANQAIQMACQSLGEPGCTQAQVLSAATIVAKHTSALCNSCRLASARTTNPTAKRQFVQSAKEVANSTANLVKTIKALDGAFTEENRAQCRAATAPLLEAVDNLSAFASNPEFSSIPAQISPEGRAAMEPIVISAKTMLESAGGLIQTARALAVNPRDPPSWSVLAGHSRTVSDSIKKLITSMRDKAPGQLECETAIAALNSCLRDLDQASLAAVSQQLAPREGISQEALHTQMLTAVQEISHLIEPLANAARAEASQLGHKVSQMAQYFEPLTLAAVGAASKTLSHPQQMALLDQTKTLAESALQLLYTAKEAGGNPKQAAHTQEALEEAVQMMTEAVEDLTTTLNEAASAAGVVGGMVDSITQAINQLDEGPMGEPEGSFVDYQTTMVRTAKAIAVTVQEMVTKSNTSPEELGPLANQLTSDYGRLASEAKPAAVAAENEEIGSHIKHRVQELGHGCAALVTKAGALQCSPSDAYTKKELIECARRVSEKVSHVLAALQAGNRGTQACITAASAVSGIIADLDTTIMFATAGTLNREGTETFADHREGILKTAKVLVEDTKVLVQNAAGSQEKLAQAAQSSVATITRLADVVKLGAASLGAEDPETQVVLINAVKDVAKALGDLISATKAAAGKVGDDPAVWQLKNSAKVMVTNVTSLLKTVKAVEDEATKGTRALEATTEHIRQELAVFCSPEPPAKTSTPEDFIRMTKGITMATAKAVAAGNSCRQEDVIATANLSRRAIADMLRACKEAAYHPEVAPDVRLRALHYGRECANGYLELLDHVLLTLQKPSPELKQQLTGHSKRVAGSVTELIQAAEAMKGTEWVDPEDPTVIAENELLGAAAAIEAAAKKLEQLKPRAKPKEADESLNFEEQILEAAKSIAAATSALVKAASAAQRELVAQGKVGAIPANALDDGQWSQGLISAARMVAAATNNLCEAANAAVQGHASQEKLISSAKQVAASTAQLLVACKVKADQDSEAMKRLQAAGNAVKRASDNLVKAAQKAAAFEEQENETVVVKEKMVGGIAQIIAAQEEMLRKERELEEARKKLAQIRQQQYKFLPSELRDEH

Row | PLA dots/cell (with PMA; FLNa-Del1 cells) | PLA dots/cell (without PMA; FLNa-Del1 cells) | PLA dots/cell (no PMA; control, FLNa WT and FLNa-Del1 cells) | PLA dots/cell (with 10 µM ROCK inhibitor Y-27632; FLNa WT cells, Figure 5H) | PLA dots/cell (with PMA and 10 µM EHop-016; FLNa-Del1 cells) | PLA dots/cell (with PMA and 10 µM Y-27632; FLNa WT cells) | PLA dots/cell (with PMA and Y-27632; FLNa-Del1 cells) | PLA dots/cell (with PMA, without EHop-016; FLNa-Del1 cells) | PLA dots/cell (with PMA, without Y-27632; FLNa WT cells) | PLA dots/cell (with PMA, without Y-27632; FLNa-Del1 cells) | PLA dots/cell (with PMA; FLNa WT cells) | PLA dots/cell (with PMA; FLNa-Del2 cells) | PLA dots/cell (with PMA; FLNa-WT cells) | PLA dots/cell (without ROCK inhibitor; FLNa WT cells, Figure 5H) | Substance
1 | 7.2 dots/cell | 17.6 dots/cell | – | – | – | – | – | – | – | – | – | – | – | – | FLNa-Del1, filamin A mutant lacking the N-terminal actin-binding domain (CH1-CH2) (domain or fragment)
2 | 15 dots/cell | 4.6 dots/cell | 5 dots/cell | 17.7 dots/cell | 4.4 dots/cell | 10.8 dots/cell | 13.2 dots/cell | 20.4 dots/cell | 4 dots/cell | 14.9 dots/cell | 8.2 dots/cell | 21.2 dots/cell | 7.1 dots/cell | 9.1 dots/cells | talin (from UniProt Q9Y490 1-2541) (natural protein)
